The results in this text go back to patent US20240368668A1, “SUBSTRATES AND BIOMARKERS OF ADAMTS7” (The Broad Institute, Inc., priority 2021, published 2024).

In this assay the target is T1, mouse ADAMTS7 (Mus musculus, UniProt Q68SA9).
T1 construct: Full-length mouse Adamts7 1-1857 (Uniprot Q68SA9, WT or E373Q catalytic mutant); expressed in transfected cells; host or cells: Human Coronary Artery Smooth Muscle Cells (HCA-SMC, Lonza), adenovirus 50 MOI
T1 sequence (Q68SA9 221-1657): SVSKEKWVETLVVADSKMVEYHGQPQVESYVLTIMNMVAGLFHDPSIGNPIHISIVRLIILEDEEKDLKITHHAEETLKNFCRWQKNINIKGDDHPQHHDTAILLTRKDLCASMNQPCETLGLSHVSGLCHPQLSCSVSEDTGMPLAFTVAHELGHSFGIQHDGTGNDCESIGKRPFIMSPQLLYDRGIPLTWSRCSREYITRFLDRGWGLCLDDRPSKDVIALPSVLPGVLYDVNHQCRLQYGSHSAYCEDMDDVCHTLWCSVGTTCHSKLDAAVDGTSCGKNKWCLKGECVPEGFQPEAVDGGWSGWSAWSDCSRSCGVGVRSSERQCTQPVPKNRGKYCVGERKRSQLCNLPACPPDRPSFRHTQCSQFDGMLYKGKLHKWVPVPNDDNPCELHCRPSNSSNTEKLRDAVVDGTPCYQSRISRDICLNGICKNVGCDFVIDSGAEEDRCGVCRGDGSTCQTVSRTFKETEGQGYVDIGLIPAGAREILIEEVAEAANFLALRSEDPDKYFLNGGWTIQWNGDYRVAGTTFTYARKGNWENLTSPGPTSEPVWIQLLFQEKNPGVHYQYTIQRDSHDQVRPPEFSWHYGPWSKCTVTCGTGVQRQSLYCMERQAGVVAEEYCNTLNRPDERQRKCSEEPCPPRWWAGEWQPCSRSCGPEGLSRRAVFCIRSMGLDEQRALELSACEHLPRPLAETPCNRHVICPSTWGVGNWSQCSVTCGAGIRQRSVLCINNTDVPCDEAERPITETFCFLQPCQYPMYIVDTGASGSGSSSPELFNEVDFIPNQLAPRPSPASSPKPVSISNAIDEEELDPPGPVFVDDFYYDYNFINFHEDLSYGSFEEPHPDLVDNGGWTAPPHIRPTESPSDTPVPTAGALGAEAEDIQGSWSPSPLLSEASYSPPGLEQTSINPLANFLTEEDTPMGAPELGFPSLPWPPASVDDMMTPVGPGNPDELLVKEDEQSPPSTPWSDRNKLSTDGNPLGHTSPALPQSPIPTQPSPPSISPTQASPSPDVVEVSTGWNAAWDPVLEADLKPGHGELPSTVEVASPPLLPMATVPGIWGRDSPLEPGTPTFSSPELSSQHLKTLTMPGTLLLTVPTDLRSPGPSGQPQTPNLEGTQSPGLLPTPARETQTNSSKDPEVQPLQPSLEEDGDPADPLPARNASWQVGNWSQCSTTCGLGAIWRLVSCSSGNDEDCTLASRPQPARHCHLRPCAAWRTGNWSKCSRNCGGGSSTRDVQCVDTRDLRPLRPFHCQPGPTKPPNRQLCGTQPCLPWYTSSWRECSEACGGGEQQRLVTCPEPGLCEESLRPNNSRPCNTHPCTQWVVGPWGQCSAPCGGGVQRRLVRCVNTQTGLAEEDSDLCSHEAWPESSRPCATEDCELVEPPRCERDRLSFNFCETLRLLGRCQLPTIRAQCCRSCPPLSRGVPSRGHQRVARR
The assay is described as follows: TMT10 TAILS N-terminomics, HUVEC experiment (process replicates, trypsin/AspN digest). Format: cell-based, human. Particulars: HUVEC TAILS HC; log fold change of N-terminal peptide, Ad-mADAMTS7 WT over Luc. The source says:
ADAMTS7 Expression, Cell Culture and Preparation of the Secreted Proteins—Full-length mouse Adamts7 1-1857 (Uniprot Q68SA9, WT or E373Q catalytic mutant) with a carboxyl terminal 3xFLAG tag was used to generate custom adenoviruses as previously described. Adeno-CMV-Luciferase (Ad-Luc) from Vector Biolabs was used as a negative control. Human Coronary Artery Smooth Muscle Cells (HCA-SMC) were obtained from Lonza and expanded in Lonza SmGM-2 media in 15 cm tissue culture plates. Twenty-four hours before media collection, near confluent plates were transduced with 50 MOI adenovirus and switched to Lonza Basal SM media with volumes of 20 ml per 15 cm plate. Expression of the Flag tagged ADAMTS7 was confirmed from the media using western blot and detected using the anti-Flag M2-HRP antibody (Sigma, A8592). Collected media was processed by adding protease inhibitors (1 mM EDTA and 1 mM PMSF) and clarified by 500 g×5 min spin at 4 C to pellet cell debris. Cell media supernatants were then passed through a 0.22 um filter and kept chilled. Processed media was then concentrated 50-100× using 3 kDa Centricon Plus-70 filter unit, spun at 3,500 g×60 min at 4 C. Approximately 10% of the processed, concentrated media was set aside for total secretome proteolytic analysis. The remaining 90% of the processed, concentrated media was buffer exchanged into 50 mM HEPES pH 8.0, 150 mM NaCl (2×50 ml) using the 3 kDa Centricon Plus-70 filter unit and concentrated to >2 mg/ml to serve as input for the TAILS experiment. Secretome and TAILS input samples were stored at −80° C.
For the first experiment, referred to as SMC1, 120 ml of media from 6×15 cm dishes was pooled from each condition (Luc, WT, EQ) and processed to produce three separate inputs for the TAILS experiment. Luc, WT and EQ inputs from the SMC1 experiment were each divided into triplicate 400 ug samples to generate technical replicate TAILS data. For the second experiment, referred to as SMC2, media was processed separately in triplicate for each condition (Luc1, Luc2, Luc3, WT1, WT2, WT3, EQ1, EQ2, EQ3) using 60 ml of media from 3×15 cm dishes for each process replicate. Inputs from the SMC2 experiment used process replicates of 300 ug each to generate TAILS data. The third experiment used input from cultured Human umbilical vein endothelial cells (HUVEC) from Lifeline Cell Technology grown in VascuLife Media and transduced in Lifeline Basal EC (+bFGF2 10 ng/ml). The HUVEC experiment used the same strategy as the SMC2 experiment, with 40 ml of media from 2×15 cm dishes for each process replicate and used 200 ug each to generate TAILS data. Inputs for process replicate experiments were restricted to the lowest concentration from the 9 parallel samples for SMC2 or HUVEC.
TMT10 isotopic labeling and negative selection of non-labeled peptides-Sample preparation was performed based on the TAILS protocol from the Overall lab with some modifications. From a single experiment, nine parallel protein samples in 50 mM HEPES pH 8.0, 150 mM NaCl were separately denatured with guanidinium chloride (Sigma, G4505) to reach a final concentration of 2.5M guanidinium chloride and 250 mM HEPES and incubated at 65° C. for 15 min. Reduction was achieved through addition of tris(2-carboxylethyl) phosphine (TCEP) at a final concentration of […] and incubated at 65° C. for 45 min. Alkylation reaction was performed with addition of iodoacetamide (IAA, Sigma, A3221) to a final concentration of 10 mM IAA for 15 min at room temperature in the dark. Following denaturation, reduction and alkylation steps, ten percent of each of the nine parallel protein samples was removed and combined to serve as a pooled reference. Isobaric tags were added to free amine groups using the TMT10plex Isobaric Mass Tagging Kit (ThermoFisher, 90113) with TMT channels randomly assigned to the nine samples and TMT 131 assigned to the pooled reference. […]
The substance “AEBP1_37 (FLEGFLSELEPEPR; listed as Homo sapiens)” showed a logFC.mWT.over.Luc of 3.77.
Substance “EFEMP1_124 (AVAGPEMQTGR; listed as Homo sapiens)” yielded a logFC.mWT.over.Luc of 2.92.
With “FBN1_29 (LEAGNVKETR; listed as Homo sapiens)” the figure was 3.57.
With “FLNA_1285 (LTQTGGPHVKAR; listed as Homo sapiens)” the figure was 3.29; with “FN1_36 (MVQPQSPVAVSQSKPGCYDNGKHYQINQQWER; listed as Homo sapiens)”, 2.98.
For “FN1_40 (QSPVAVSQSKPGCYDNGKHYQINQQWER; listed as Homo sapiens)” the value was 2.45.
“FN1_886 (NQESTPVVIQQETTGTPR; listed as Homo sapiens)” gave a logFC.mWT.over.Luc of 1.61.
On to “FN1_1143 (LTPGVEYVYTIQVLR; listed as Homo sapiens)”, for which the logFC.mWT.over.Luc is 3.43.
For “FN1_1656 (SSSPVTGYR; listed as Homo sapiens)” the value was 1.56.
With “HSPG2_2331 (ANLAYPAGSTQPIR; listed as Homo sapiens)”, the logFC.mWT.over.Luc stood at 1.72.
With “IGFBP7_101 (AAGGPGVSGVCVCKSR; listed as Homo sapiens)” the figure was 1.86; with “LOXL2_37 (FQQPAPEYHQPQAPANVAKIQLR; listed as Homo sapiens)”, 2.82.
For “LOX_124 (WFQAGYSTSR; listed as Homo sapiens)” the value was 3.38; for “LTBP1_393 (LTATNFR; listed as Homo sapiens)”, 3.14.
